Experimental data reported in publication PMC6791878 (2019).
Where two headings read alike, the source gives them in different places. Where no end group is shown, it is not given here.

B1: Recombinant human integrin αvβ6 (complex)
chain 1: FNLDVDSPAEYSGPEGSYFGFAVDFFVPSASSRMFLLVGAPKANTTQPGIVEGGQVLKCDWSSTRRCQPIEFDATGNRDYAKDDPLEFKSHQWFGASVRSKQDKILACAPLYHWRTEMKQEREPVGTCFLQDGTKTVEYAPCRSQDIDADGQGFCQGGFSIDFTKADRVLLGGPGSFYWQGQLISDQVAEIVSKYDPNVYSIKYNNQLATRTAQAIFDDSYLGYSVAVGDFNGDGIDDFVSGVPRAARTLGMVYIYDGKNMSSLYNFTGEQMAAYFGFSVAATDINGDDYADVFIGAPLFMDRGSDGKLQEVGQVSVSLQRASGDFQTTKLNGFEVFARFGSAIAPLGDLDQDGFNDIAIAAPYGGEDKKGIVYIFNGRSTGLNAVPSQILEGQWAARSMPPSFGYSMKGATDIDKNGYPDLIVGAFGVDRAILYRARPVITVNAGLEVYPSILNQDNKTCSLPGTALKVSCFNVRFCLKADGKGVLPRKLNFQVELLLDKLKQKGAIRRALFLYSRSPSHSKNMTISRGGLMQCEELIAYLRDESEFRDKLTPITIFMEYRLDYRTAADTTGLQPILNQFTPANISRQAHILLDCGEDNVCKPKLEVSVDSDQKKIYIGDDNPLTLIVKAQNQGEGAYEAELIVSIPLQADFIGVVRNNEALARLSCAFKTENQTRQVVCDLGNPMKAGTQLLAGLRFSVHQQSEMDTSVKFDLQIQSSNLFDKVSPVVSHKVDLAVLAAVEIRGVSSPDHVFLPIPNWEHKENPETEEDVGPVVQHIYELRNNGPSSFSKAMLHLQWPYKYNNNTLLYILHYDIDGPMNCTSDMEINPLRIKISSLQTTEKNDTVAGQGERDHLITKRDLALSEGDIHTLGCGVAQCLKIVCQVGRLDRGKSAILYVKSLLWTETFMNKENQNHSYSLKSSASFNVIEFPYKNLPIEDITNSTLVTTNVTWGIQPAPMPV
chain 2: GCALGGAETCEDCLLIGPQCAWCAQENFTHPSGVGERCDTPANLLAKGCQLNFIENPVSQVEILKNKPLSVGRQKNSSDIVQIAPQSLILKLRPGGAQTLQVHVRQTEDYPVDLYYLMDLSASMDDDLNTIKELGSRLSKEMSKLTSNFRLGFGSFVEKPVSPFVKTTPEEIANPCSSIPYFCLPTFGFKHILPLTNDAERFNEIVKNQKISANIDTPEGGFDAIMQAAVCKEKIGWRNDSLHLLVFVSDADSHFGMDSKLAGIVIPNDGLCHLDSKNEYSMSTVLEYPTIGQLIDKLVQNNVLLIFAVTQEQVHLYENYAKLIPGATVGLLQKDSGNILQLIISAYEELRSEVELEVLGDTEGLNLSFTAICNNGTLFQHQKKCSHMKVGDTASFSVTVNIPHCERRSRHIIIKPVGLGDALELLVSPECNCDCQKEVEVNSSKCHHGNGSFQCGVCACHPGHMGPRCECGEDMLSTDSCKEAPDHPSCSGRGDCYCGQCICHLSPYGNIYGPYCQCDNFSCVRHKGLLCGGNGDCDCGECVCRSGWTGEYCNCTTSTDSCVSEDGVLCSGRGDCVCGKCVCTNPGASGPTCERCPTCGDPCNSKRSCIECHLSAAGQAREECVDKCKLAGATISEEEDFSKDGSVSCSLQGENECLITFLITTDNEGKTIIHSINEKDCPKPPNIP

Experiments:
[1] = biological target: B1; assay: FACS; competition with yeast-displayed R01-MG
[2] = biological target: B1; assay: FACS; competition with yeast-displayed R01-MG
[3] = biological target: R01-MW; assay: FACS

Binder | IC50 [1] | other results
{(19F)fluoropropyl}-GCILNGRTDLGTLLFRCRRDSDCPGACICRGNGYCG (designed binder, disulfide (positions not given here); not fully specified (C-terminus)) [[^19F]FP-R01-MG-F2] | 0.469 nM | 
GCILNGRTDLGTLLFRCRRDSDCPGACICRGNGYCG-NH2 (designed binder, disulfide (positions not given here)) [R01-MG synthetic cystine knot peptide (unlabeled precursor)] | 0.383 nM | 
{2‑(19F)fluoropropionyl}-GCILNGRTDLGTLLFRCRRDSDCPGACICRGNGYCG-NH2 (disulfide (positions not given here); not fully specified (bridges)) [[19F]FP-R01-MG-F1] |  | IC50 [2]: 0.541 nM
B1 |  | Kd [3]: 1.69 nM
